The text below walks through data of patent US20200155643.

The target of this data set is Recombinant human protein C inhibitor (PCI, SERPINA5) (UniProt P05154).
Recombinant human protein C inhibitor (PCI, SERPINA5), sequence (P05154 20-406): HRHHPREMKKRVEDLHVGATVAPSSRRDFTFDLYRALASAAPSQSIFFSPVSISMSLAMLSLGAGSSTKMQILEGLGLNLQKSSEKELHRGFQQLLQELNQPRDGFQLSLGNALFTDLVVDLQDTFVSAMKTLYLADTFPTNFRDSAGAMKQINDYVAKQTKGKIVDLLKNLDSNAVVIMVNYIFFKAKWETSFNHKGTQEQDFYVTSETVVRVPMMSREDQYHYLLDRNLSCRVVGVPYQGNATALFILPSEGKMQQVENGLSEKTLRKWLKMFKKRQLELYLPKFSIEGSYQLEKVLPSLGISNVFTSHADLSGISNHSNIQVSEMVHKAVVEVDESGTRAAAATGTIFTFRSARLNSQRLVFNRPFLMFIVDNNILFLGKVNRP

Take “Recombinant human hepsin (R&D Systems 4776-SE-10)”: the “cleavage of PCI (anti-PCI immunoblot)” value was “resulted in the appearance of cleaved forms of PCI”. Consider “Recombinant mouse testisin (R&D Systems 6820-SE-10)”, for which the “cleavage of PCI (anti-PCI immunoblot)” value was “PCI is a substrate for testisin ... testisin cleaves PCI at a second site”.
